We go through three molecules from patent EP4578877A1 (Nanjing Leads Biolabs Co., Ltd., dated 2025).

Numbering of substitutions follows the chain as printed. Numbers in names are those of the source.

In assay [1] the target is recombinant human FAP protein (Sino Biological, Cat# 10464-H07H) (human) (UniProt Q12884). Briefly: ELISA on immobilized human FAP; antibody stored at 40 °C for 2 weeks, relative to 0 weeks.
For assay [2] the target is unchanged. Put plainly: ELISA on immobilized human FAP; antibody stored at 40 °C for 0 weeks.
The target in assay [3] is T1, human FAP protein expressed on 293T cells (293T-human FAP) (human, UniProt Q12884 1-760).
T1 sequence: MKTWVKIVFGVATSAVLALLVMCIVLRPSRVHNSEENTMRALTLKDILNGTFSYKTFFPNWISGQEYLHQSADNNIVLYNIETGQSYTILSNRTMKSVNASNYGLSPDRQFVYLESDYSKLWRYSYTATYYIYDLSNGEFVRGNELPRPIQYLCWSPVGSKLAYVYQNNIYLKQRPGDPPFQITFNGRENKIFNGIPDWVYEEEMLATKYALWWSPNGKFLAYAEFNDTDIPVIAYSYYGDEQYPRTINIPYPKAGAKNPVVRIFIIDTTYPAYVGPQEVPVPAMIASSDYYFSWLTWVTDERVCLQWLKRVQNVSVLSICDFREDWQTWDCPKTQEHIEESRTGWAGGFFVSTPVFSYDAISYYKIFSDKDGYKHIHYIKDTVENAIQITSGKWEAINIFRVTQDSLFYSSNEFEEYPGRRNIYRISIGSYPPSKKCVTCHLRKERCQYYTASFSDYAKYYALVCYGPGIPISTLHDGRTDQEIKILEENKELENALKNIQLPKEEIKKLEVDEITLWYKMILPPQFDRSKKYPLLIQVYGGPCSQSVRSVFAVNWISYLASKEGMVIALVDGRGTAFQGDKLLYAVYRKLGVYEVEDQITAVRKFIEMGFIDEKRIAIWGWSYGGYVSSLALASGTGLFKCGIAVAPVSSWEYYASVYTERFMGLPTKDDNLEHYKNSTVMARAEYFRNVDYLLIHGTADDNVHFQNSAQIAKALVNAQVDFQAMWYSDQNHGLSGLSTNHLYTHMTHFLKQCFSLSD
Briefly: flow cytometry on 293T-human FAP cells. A general note: In flow cytometry, cells or beads pass a laser one at a time.

The target of assay [4] is T2, cynomolgus FAP protein expressed on 293T cells (293T-cynomolgus FAP) (cynomolgus, UniProt Q12884 1-760 (human entry)).
T2 sequence: T1 sequence with S29P, V261F, E417D
Briefly: flow cytometry on 293T-cynomolgus FAP cells.

Assay [5] concerns the target recombinant human FAP protein (Sino Biological, Cat# 10464-H07H) (human) (UniProt Q12884). Briefly: ELISA on immobilized human FAP; antibody stored at 40 °C for 4 weeks, relative to 0 weeks. Background: In an ELISA, binding on a coated surface is turned into a signal by an enzyme label.
Assay [6] has as its target T3, recombinant human FAP protein (Sino Biological, Cat# 10464-H07H) (human, UniProt Q12884 26-760).
T3 construct: Bought protein
T3 sequence: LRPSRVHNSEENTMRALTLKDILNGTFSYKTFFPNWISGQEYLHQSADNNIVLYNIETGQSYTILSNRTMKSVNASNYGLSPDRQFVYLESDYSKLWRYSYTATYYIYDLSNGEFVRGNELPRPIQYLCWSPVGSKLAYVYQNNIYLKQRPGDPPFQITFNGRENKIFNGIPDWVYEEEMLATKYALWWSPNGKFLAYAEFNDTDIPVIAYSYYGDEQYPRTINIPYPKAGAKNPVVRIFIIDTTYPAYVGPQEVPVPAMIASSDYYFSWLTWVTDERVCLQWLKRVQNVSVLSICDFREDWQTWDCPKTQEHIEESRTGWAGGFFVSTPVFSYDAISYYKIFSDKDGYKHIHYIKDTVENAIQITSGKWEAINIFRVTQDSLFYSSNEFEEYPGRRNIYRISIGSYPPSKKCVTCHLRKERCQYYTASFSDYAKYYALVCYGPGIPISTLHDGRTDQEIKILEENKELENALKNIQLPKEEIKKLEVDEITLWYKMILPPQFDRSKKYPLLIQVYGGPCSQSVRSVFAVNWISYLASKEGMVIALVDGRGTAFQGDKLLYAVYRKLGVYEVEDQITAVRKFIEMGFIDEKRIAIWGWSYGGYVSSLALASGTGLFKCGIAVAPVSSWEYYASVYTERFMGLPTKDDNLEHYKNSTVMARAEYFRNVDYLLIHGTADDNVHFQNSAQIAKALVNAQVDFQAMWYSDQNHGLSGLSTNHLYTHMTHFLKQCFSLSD
Briefly: ELISA, human FAP protein immobilized on plate.

B1: humanized anti-FAP antibody huF19-LG (antibody, human IgG1, kappa, V domains shown)
VH: QVQLVQSGAEVKKPGASVKVSCKASGYTFTEYTIHWVRQATGQGLEWIGGINPNNGIPNYNQKFKGRATMTVGTSISTAYMELSSLRSEDTAVYFCARRRIAYGYDEGHAMDYWGQGTLVTVSS
VL: DIQMTQSPSSLSASVGDRVTITCKSSQSLLYSRNQKNYLAWFQQKPGKAPKLLIFWASTRESGVPSRFTGSGFGTDFTLTISSLQPEDFATYYCQQYFSYPLTFGQGTKLEIKR
notes: Full-length human IgG1/kappa; expressed in ExpiCHO-S
With B1, the ELISA Relative activity amounted to 93.8% in assay [1], 100% in assay [2] and 89.9% in assay [5]. In addition, the binding result in assay [3] and in assay [4] was “binds” each time.

B2: sibrotuzumab (humanized reference anti-FAP antibody) (antibody, human IgG1, kappa, V domains shown)
VH: B1 VH with A24T, G26R, T41P, G44R, A68V, M70I, G73D, I76A, F95Y
VL: DIVMTQSPDSLAVSLGERATINCKSSQSLLYSRNQKNYLAWYQQKPGQPPKLLIFWASTRESGVPDRFSGSGFGTDFTLTISSLQAEDVAVYYCQQYFSYPLTFGQGTKVEIKR
notes: Full-length human IgG1/kappa
With B2, the binding result in assay [6], in assay [3] and in assay [4] was “binds” in each case.

B3: mutant humanized FAP antibody huF19-LG-NGR (antibody, human IgG1, kappa, V domains shown)
VH: B1 VH with G56R
VL: B1 VL
notes: huF19-LG with G56R (Kabat) in HCDR2; also called optimized FAP antibody
With B3, the binding result in assay [3] and in assay [4] was “binds” throughout.
